From US20240352452, “CRISPR-BASED PROTEIN BARCODING AND SURFACE ASSEMBLY” (The Brigham and Women's Hospital, Inc., published 2024) come the findings set out here.

Residue numbers refer to the chain shown, from its start.

Data set [1] deals with T1, dCas9-6His (UniProt Q99ZW2 SEQ:1-1368). Kind of data set: dsDNA microarray, perfect match; PAM NGG. To be noted: tags: C-terminal 6His (pdCas9-bacteria, Addgene #44249 derived); label: Cy3-dUTP.
The target of another data set is dCas9-scFv B1-182.1 (UniProt Q99ZW2 SEQ:1-1368). Kind of data set: dsDNA microarray; detected via spike antigen and CR3022; PAM NGG. To be noted: tags: C-terminal anti-spike scFv B1-182.1 fusion and 6His (Addgene #186421); label: Cy3-dUTP.
Data set [2] concerns the target T2, dCas9-HA (UniProt Q99ZW2 SEQ:1-1368). Description: dsDNA microarray, anti-HA; PAM NGG. To be noted: label: Cy3-dUTP.
The target of data set [3] is T1, dCas9-6His. Description: dsDNA microarray, anti-6His; PAM NGG; 37 C 16 h, 50 mM Tris pH 7.4, 150 mM NaCl. To be noted: tags: C-terminal 6His (pdCas9-bacteria, Addgene #44249 derived); label: Cy3-dUTP.
For data set [4], the target named is T1, dCas9-6His. Description: off-target probe with PAM; dsDNA microarray. To be noted: tags: C-terminal 6His (pdCas9-bacteria, Addgene #44249 derived); label: Cy3-dUTP.
For data set [5], the target named is T2, dCas9-HA. Description: no-PAM control; binding depended on PAM. The settings on record: label: Cy3-dUTP.
Data set [6] concerns the target T3, dCas9-myc (UniProt Q99ZW2 SEQ:1-1368). Description: dsDNA microarray, anti-myc; PAM NGG. The settings on record: label: Cy3-dUTP.
In data set [7] the target is T3, dCas9-myc. Description: no-PAM control; binding depended on PAM. To be noted: label: Cy3-dUTP.

B1: sgRNA spacer CACUGUU ; probe for G4 (ssRNA ; dsDNA)
RNA: CACUGUUUAACAAGCCCGUCGUUUUAGAGCUAGAAAUAGCAAGUUAAAAUAAGGCUAGUCCGUUAUCAACUUGAAAAAGUGGCACCGAGUCGGUGC
DNA 1: GAGCGACGCTGCACCAGACGGGCTTGTTAAACAGTGCCCGACCTCACCCG
DNA 2: CGGGTGAGGTCGGGCACTGTTTAACAAGCCCGTCTGGTGCAGCGTCGCTC
Turning to B1, the binding result with dCas9-6His [1] is “binds”.

B2: sgRNA spacer UCCAUAG ; probe for G5 (ssRNA ; dsDNA)
RNA: UCCAUAGAUUUCUCCGUGAGGUUUUAGAGCUAGAAAUAGCAAGUUAAAAUAAGGCUAGUCCGUUAUCAACUUGAAAAAGUGGCACCGAGUCGGUGC
DNA 1: GAGCGACGCTGCACCACTCACGGAGAAATCTATGGACCCGACCTCACCCG
DNA 2: CGGGTGAGGTCGGGTCCATAGATTTCTCCGTGAGTGGTGCAGCGTCGCTC
Take B2: the binding result with dCas9-6His [1] and with dCas9-scFv B1-182.1 was “binds” throughout.

B3: sgRNA spacer CCGUACC ; probe for G1 (ssRNA ; dsDNA)
RNA: CCGUACCUAGAUACACUCAAGUUUUAGAGCUAGAAAUAGCAAGUUAAAAUAAGGCUAGUCCGUUAUCAACUUGAAAAAGUGGCACCGAGUCGGUGC
DNA 1: GAGCGACGCTGCACCATTGAGTGTATCTAGGTACGGCCCGACCTCACCCG
DNA 2: CGGGTGAGGTCGGGCCGTACCTAGATACACTCAATGGTGCAGCGTCGCTC
For the molecule B3, the binding result in the data set with dCas9-HA [2] and in the data set with dCas9-6His [3] was “binds” throughout.

B4: sgRNA spacer CCGUACC ; probe for G2 (ssRNA ; dsDNA)
RNA: B3 RNA
DNA 1: GAGCGACGCTGCACCAATGCGGAGGGTTTCTTTTATCCCGACCTCACCCG
DNA 2: CGGGTGAGGTCGGGATAAAAGAAACCCTCCGCATTGGTGCAGCGTCGCTC
In the case of B4, in the data set with dCas9-6His [4], the binding result is “no binding”.

B5: sgRNA spacer CCGUACC ; probe for G1, no PAM (ssRNA ; dsDNA)
RNA: B3 RNA
DNA 1: B3 DNA 1 with C15G
DNA 2: B3 DNA 2 with G36C
For the molecule B5, the binding result with dCas9-HA [5] is recorded as “no binding”.

B6: sgRNA spacer AUAAAAG ; probe for G2 (ssRNA ; dsDNA)
RNA: AUAAAAGAAACCCUCCGCAUGUUUUAGAGCUAGAAAUAGCAAGUUAAAAUAAGGCUAGUCCGUUAUCAACUUGAAAAAGUGGCACCGAGUCGGUGC
DNA 1: B4 DNA 1
DNA 2: B4 DNA 2
With B6, in the data set with dCas9-myc [6], the binding result is “binds”.

B7: sgRNA spacer AUAAAAG ; probe for G2, no PAM (ssRNA ; dsDNA)
RNA: B6 RNA
DNA 1: B4 DNA 1 with C15G
DNA 2: B4 DNA 2 with G36C
Consider B7, for which the binding result in the data set with dCas9-myc [7] was “no binding”.

B8: sgRNA spacer AGAGACU ; probe for G3 (ssRNA ; dsDNA)
RNA: AGAGACUGCCCGACACAUCUGUUUUAGAGCUAGAAAUAGCAAGUUAAAAUAAGGCUAGUCCGUUAUCAACUUGAAAAAGUGGCACCGAGUCGGUGC
DNA 1: GAGCGACGCTGCACCAAGATGTGTCGGGCAGTCTCTCCCGACCTCACCCG
DNA 2: CGGGTGAGGTCGGGAGAGACTGCCCGACACATCTTGGTGCAGCGTCGCTC
For the molecule B8, the binding result with dCas9-6His [1] is “binds”.
